According to patent publication US20090074795A1, “Methods for addressing ocular diseases through interference with the wnt signaling pathway” (priority 2007, published 2009):

Test system: HUVEC
Test: DKK1 on VEGF over-expression in HUVEC transfected with VLDLR siRNA
Assay type: cell-based
Conditions: 10 μg/ml human DKK1, 24 hours, ELISA and RT-PCR, vs BSA
Protocol: The regulatory roles of VLDLR and the wnt pathway in VEGF expression in cultured endothelial cells was also investigated.
Vldlr^−/− mice received a subretinal injection of 5 μg purified mouse DKK1 into the right eyes, and the same amount BSA into the left eyes. According to embodiments shown in FIG. 9A, The eyecups were dissected 24 h following the injection for the following analyses, phosphorylated β-catenin and VEGF levels were measured by Western blot analysis of a representative mouse eyecup using the anti-phosphorylated β-catenin and anti-VEGF antibodies, respectively. According to embodiments shown in FIG. 9B, VEGF protein levels in Vldlr^−/− eyecups were measured using ELISA. According to embodiments shown in FIG. 9C, VEGF mRNA levels in the Vldlr^−/− eyecups were measured using quantitative real-time RT-PCR. Values are mean±SD (n=4). According to embodiments shown in FIGS. 9D-9G, Vldlr^−/− mice were injected with 5 μg/eye BSA into the subretinal space of the left eye (FIGS. 9D and 9F) and the same amount of DKK1 into the right eye (FIGS. 9E and 9G). […] VEGF protein was measured in the culture medium by ELISA (FIG. 9H) and the VEGF mRNA measured in the cells by real-time RT-PCR, normalized by 18s RNA and expressed as arbitrary unit (mean±SD, n=3) (FIG. 9I), 24 hours after the addition of DKK1. […]

B1: DKK1: Purified Dickkopf-1 protein (R&D System), specific inhibitor of the wnt pathway binding LRP5/6; mouse protein in mice, human in HUVEC (protein, UniProt O54908 32-272; O54908 32-272, looked up)
Dickkopf-related protein 1 1: TLNSVLINSNAIKNLPPPLGGAGGQPGSAVSVAPGVLYEGGNKYQTLDNYQPYPCAEDEECGSDEYCSSPSRGAAGVGGVQICLACRKRRKRCMRHAMCCPGNYCKNGICMPSDHSHFPRGEIEESIIENLGNDHNAAAGDGYPRRTTLTSKIYHTKGQEGSVCLRSSDCAAGLCCARHFWSKICKPVLKEGQVCTKHKRKGSHGLEIFQRCYCGEGLACRIQKDHHQASNSSRLHTCQRH
Dickkopf-related protein 1 2: B1 Dickkopf-related protein 1 1
modifications: mouse protein in mice, human in HUVEC
- VEGF over-expression induced by the VLDLR siRNA: blocked the VEGF over-expression
